Measured values as given in US20170267738A1 (published 2017).
Values belong to the binder of their own block, whether it stands above or below them.

Assays:
[1] = target: T1, MAGEA4 (peptide MAG-003) peptide on HLA-A*02:01 (human); test: multimer staining
T1 peptide: KVLEHVVRV

[2] = target: T2, MAGEA4 (MAG-003 A6, alanine at position 6) peptide on HLA-A*02:01 (human); test: cytokine release
T2 peptide: KVLEHAVRV

[3] = target: T3, ANO5 (peptide ANO5-001) peptide on HLA-A*02:01 (human); test: cytokine release
T3 peptide: IVMEHVVFL

[4] = target: T4, HERC4 (peptide HERC4-001) peptide on HLA-A*02:01 (human); test: cytokine release
T4 peptide: KVLEILHRV

[5] = target: T5, PSME2 (peptide PSME2-001) peptide on HLA-A*02:01 (human); test: cytokine release
T5 peptide: KVLERVNAV

[6] = target: T6, CNOT1 (peptide CNOT1-003) peptide on HLA-A*02:01 (human); test: cytokine release
T6 peptide: KVLGIVVGV

[7] = target: T7, SYNE3 (peptide SYNE3-001) peptide on HLA-A*02:01 (human); test: cytokine release
T7 peptide: KLLDLQVRV

[8] = target: T8, AXIN1 (peptide AXIN1-001) peptide on HLA-A*02:01 (human); test: cytokine release
T8 peptide: ILDEHVQRV

[9] = target: T9, MIA3 (peptide MIA3-001) peptide on HLA-A*02:01 (human); test: cytokine release
T9 peptide: KVLDKVFRA

[10] = target: T10, MAGEA4 (MAG-003 A2, alanine at position 2; same residues as SEQ ID NO: 9) peptide on HLA-A*02:01 (human); test: cytokine release
T10 peptide: KALEHVVRV

[11] = target: T11, TPX2 (peptide TPX2-001) peptide on HLA-A*02:01 (human); test: cytokine release
T11 peptide: KILEDVVGV

[12] = target: T12, MAGEA4 (MAG-003 A9, alanine at position 9; same residues as SEQ ID NO: 3) peptide on HLA-A*02:01 (human); test: cytokine release
T12 peptide: KVLEHVVRA

[13] = target: T13, RABGAP1L (peptide RABGAP1L-001) peptide on HLA-A*02:01 (human); test: cytokine release
T13 peptide: FLLETVVRV

[14] = target: T14, HEATR5A (peptide HEATR5A-001) peptide on HLA-A*02:01 (human); test: cytokine release
T14 peptide: KVLETLVTV

[15] = target: T15, MAGEA4 (MAG-003 A7, alanine at position 7) peptide on HLA-A*02:01 (human); test: cytokine release
T15 peptide: KVLEHVARV

binding result [1]: recognises
binding result [2]: recognises
binding result [3]: no recognition
binding result [4]: no recognition
binding result [5]: no recognition
binding result [6]: no recognition
binding result [7]: no recognition
binding result [8]: no recognition
binding result [9]: no recognition
binding result [10]: recognises
binding result [11]: no recognition
binding result [12]: recognises
binding result [13]: no recognition
binding result [14]: no recognition
B1: R20P1H7 (TCR, V domains shown)
Valpha: EDQVTQSPEALRLQEGESSSLNCSYTVSGLRGLFWYRQDPGKGPEFLFTLYSAGEEKEKERLKATLTKKESFLHITAPKPEDSATYLCAVQGENSGYSTLTFGKGTMLLVSP
Vbeta: EAQVTQNPRYLITVTGKKLTVTCSQNMNHEYMSWYRQDPGLGLRQIYYSMNVEVTDKGDVPEGYKVSRKEKRNFPLILESPSPNQTSLYFCASSLGPGLAAYNEQFFGPGTRLTVL

binding result [1]: recognises
binding result [2]: recognises
binding result [3]: no recognition
binding result [4]: no recognition
binding result [5]: no recognition
binding result [6]: no recognition
binding result [7]: no recognition
binding result [8]: no recognition
binding result [9]: no recognition
binding result [11]: no recognition
binding result [12]: recognises
binding result [15]: recognises
binding result [13]: no recognition
binding result [14]: no recognition
B2: R10P2G12 (TCR, V domains shown)
Valpha: AQKVTQAQTEISVVEKEDVTLDCVYETRDTTYYLFWYKQPPSGELVFLIRRNSFDEQNEISGRYSWNFQKSTSSFNFTITASQVVDSAVYFCALSEGNSGNTPLVFGKGTRLSVIA
Vbeta: DVKVTQSSRYLVKRTGEKVFLECVQDMDHENMFWYRQDPGLGLRLIYFSYDVKMKEKGDIPEGYSVSREKKERFSLILESASTNQTSMYLCASSLSSGSHQETQYFGPGTRLLVL
